Like-named read-outs stand apart in the source and are kept apart here.

Assay [1] has as its target insulin receptor subtype A (human) (UniProt P06213). Description: IR-A Binding, competition with 125I-insulin.
The target is the same in assay [2]. Put plainly: cell-based or functional assay.
Assay [3] deals with insulin receptor subtype B (human) (UniProt P06213). Put plainly: cell-based or functional assay.
Assay [4] addresses insulin receptor subtype A (human) (UniProt P06213). Put plainly: cell-based or functional assay. This is another data set of the same source.
The target of assay [5] is insulin receptor subtype B (human) (UniProt P06213). Description: cell-based or functional assay. This is another data set of the same source.

A word on the IC50: it is the point on the concentration scale where inhibition reaches its midpoint. Low values mean higher potency, high ones lower potency. As to “native IGF-1 (from UniProt P05019 49-118) (ligand)”, in assay [1], the IC50 worked out at 18.8 nM. Further, in assay [2], the EC50, Receptor Phosphorylation was 6.48 nM. This substance had an EC50, Receptor Phosphorylation in assay [3] of 32.2 nM. In assay [4], this substance registered an EC50, IR-A Phosphorylation of 29.2 nM; an EC50, Receptor Phosphorylation of 10 nM; an EC50, phosphorylation (FIG. 18A) of 2.24 nM; an IC50 (so named in p-1063), Phosphorylation at Insulin Receptor Subtype A of 146 nM. In assay [5], this substance yielded an EC50, Receptor Phosphorylation of 16.6 nM; an EC50, phosphorylation (FIG. 18B) of 32.4 nM; an IC50 (so named in p-1063), Phosphorylation at Insulin Receptor Subtype B of 19.7 nM.
